This is an account of results in publication PMC9272825 (The Journal of Physical Chemistry. B, 2022).

Broadly, the Kd is the concentration at which binding is half-saturated. Lower therefore signals a tighter complex.

This assay concerns the target N-terminal domain of enzyme I (EIN) (UniProt P08839 1-249). The assay is described as follows: NMR titration.

“And” between values parts separate entries of the source, which are not always exact repeats. Equal entries are not always repeated.

B1: Histidine phosphocarrier protein (HPr) (natural protein)
chain: not shown
As for B1, the Kd is 2820 nM and 2450 nM and 3030 nM and 3020 nM.
